Source: article PMC3088709, “Phosphorylation of the Yeast γ-Tubulin Tub4 Regulates Microtubule Function” (PLoS ONE, 2011)

B1: Tub4 (yeast gamma-tubulin), wild type, untagged [S. cerevisiae] / Spc97-3HA [S. cerevisiae] (parent complex)
chain 1: MGGEIITLQAGQCGNHVGKFLWSQLAKEHAIGTDGLSQLPDSSTERDDDTKPFFRENSRNKFTPRAIMMDSEPSVIADVENTFRGFFDPRNTWVASDGASAGNSWANGYDIGTRNQDDILNKIDKEIDSTDNFEGFQLLHSVAGGTGSGLGSNLLEALCDRYPKKILTTYSVFPARSSEVVVQSYNTILALRRLIEDSDATVVFDNASLLNISGKVFRNPNIDLQHTNQLISTIISSVTNSIRFPSYMYSSMSSIYSTLIPSPELHFLSPSFTPFTSDYIHDDIAHKGHSSYDVMLDLLDPSNSLVSTAMNNPTYFNVYNTIIGNVEPRQISRAMTKLQQRIKFPSWSSSAMHVNIGRRSPYLPLQPNENEVSGMMLSNMSTVVNVFENACNTFDKVFAKGAFLNNYNVGDLFQSMQNVQDEFAESREVVQSLMEDYVAAEQDSYLDDVLVDDENMVGELEEDLDADGDHKLV
chain 2: MEIKEVDDRAELLRYTNNIPLLGKLVNHQPLWSTNPKLKSFSLEKISAPDQRRVQEALVVKDLLNVLIGLEGTYIRYFNDYEPSDPETPIEFKIAKKMDPSFKTFSRRIVRYGKQYMILTRAYEKWSDTSFGMVLQRFAYEIRRFLEDVYLKTLVERLERDFNKVPNFSIRELEQIINETEVNKQMELLYNIYEEIFREIEERRTNQSSQEDFNNFMDSMKNESSLHLRLMVAFDTTVYPVPKGGAILKIFQQKILENLGDRSSVMFLKKLLNNISQDYCTMLYEWLTQGILNDPYQEFMTYDDLEGKTDNIFDTRDRAWDTQYFIRKDVLLRDCDSEEDKNLLFKMLRTGILLKVVRASLQIPTIPSNSSDITIQEINDFADLMEGSNLELYVDKCYSRANEIFLKLFFQGYDLINVLKHLQQIFLGYQSGHNVLKFLTKNMGELTKHYRNDNNANYDKLLQNFELERQSENPNNLMRQLLMIQFDTETLPQVLSHYLQIYPEVPENNSANDDSDPLMHANNFKNMNAILFDELSKERTGAYHGSNLELYTPKSAIYHLKFDINIPYPLNIIISRTCMIKYQIILRYQLVLQYHSRLLDETWMDLNKTPSWKYRGYSHTVKRRIVRATRVLHAKMNHFIKTIMEYFNQNVIDKEVYSLEKCYRNPTLAVAIQNELEGGLTNIMTNRCLSDLIPLQLQIFDIVYKFCKFIKSMRAKLCQLDPVLYEKHKSGMMKTLNEGYRTNNGGQEDVGYQEDAALELIQKLIEYISNASSIFRKCLINFTQELSTEKFDFYDSSSVDAAGIERVLYSIVPPRSASASSQR

Variants of: B1
Experiment: co-immunoprecipitation (anti-HA IP of Spc97-3HA), quantified immunoblot; TUB4-AID SPC97-3HA cells, IAA for 2 h at 30°C; normalized to precipitated Spc97-3HA; parent: 1; read off a plot
Variant chain 1 MGGEIITLQAGQCGNHVGKFLWSQLAKEHAIGTDGLSQLPDSSTERDDDTKPFFRENSRNKFTPRAIMMDSEPSVIADVENTFRGFFDPRNTWVASDGASAGNSWANGYDIGTRNQDDILNKIDKEIDSTDNFEGFQLLHSVAGGTGSGLGSNLLEALCDRYPKKILTTYSVFPARSSEVVVQSYNTILALRRLIEDSDATVVFDNASLLNISGKVFRNPNIDLQHTNQLISTIISSVTNSIRFPSYMYSSMSSIYSTLIPSPELHFLSPSFTPFTSDYIHDDIAHKGHSSYDVMLDLLDPSNSLVSTAMNNPTYFNVYNTIIGNVEPRQISRAMTKLQQRIKFPSWSSSAMHVNIGRRDPYLPLQPNENEVSGMMLSNMSTVVNVFENACNTFDKVFAKGAFLNNYNVGDLFQSMQNVQDEFAESREVVQSLMEDYVAAEQDSYLDDVLVDDENMVGELEEDLDADGDHKLV [chain 1 S360D] has a ratio to parent of about 0.41.
chain 1 MGGEIITLQAGQCGNHVGKFLWSQLAKEHAIGTDGLSQLPDSSTERDDDTKPFFRENSRNKFTPRAIMMDSEPSVIADVENTFRGFFDPRNTWVASDGAEAGNSWANGYDIGTRNQDDILNKIDKEIDSTDNFEGFQLLHSVAGGTGSGLGSNLLEALCDRYPKKILTTYSVFPARSSEVVVQSYNTILALRRLIEDSDATVVFDNASLLNISGKVFRNPNIDLQHTNQLISTIISSVTNSIRFPSYMYSSMSSIYSTLIPSPELHFLSPSFTPFTSDYIHDDIAHKGHSSYDVMLDLLDPSNSLVSTAMNNPTYFNVYNTIIGNVEPRQISRAMTKLQQRIKFPSWSSSAMHVNIGRRSPYLPLQPNENEVSGMMLSNMSTVVNVFENACNTFDKVFAKGAFLNNYNVGDLFQSMQNVQDEFAESREVVQSLMEDYVAAEQDSYLDDVLVDDENMVGELEEDLDADGDHKLV [chain 1 S100E] gave a ratio to parent of about 0.63.
